Test results reported in US20050221422.

T1: 4-GalNAc-HP (VPST(GalNAc)PPTPSPSTPPTPSPS), human IgA1 hinge peptide with GalNAc on the 4th residue
T1 chain: VPSTPPTPSPSTPPTPSPS

T2: 11-GalNAc-HP-Cy5 (VPSTPPTPSPS(GalNAc)TPPTPSPS), human IgA1 hinge peptide with GalNAc on the 11th residue, Cy5-labelled
T2 chain: VPSTPPTPSPSTPPTPSPS


How the values were obtained:
[1] = target: T1, 4-GalNAc-HP …
[2] = target: T2, 11-GalNAc-HP-Cy5 …
[3] = target: various GalNAc α1-peptides

Row | Protein | galactose transferring activity [1] | HPLC of the galactose transfer reaction product [2] | β1,3-galactosidase treatment of the reaction product, HPLC [2] | galactosyltransferase activity on acceptor substrates [3]
1 | FLAG tagged C1Gal-T3 fusion protein (C1Gal-T3 recombinant enzyme from pFLAG-C1Gal-T3, secreted by COS-1 cells) (protein) HIRHRGQTQDHEHHHLRPPNRNDFLNTSKVILLELSKSIRVFCIIFGESEDESYWAVLKETWTKHCDKAELYDTKNDNLFNIESNDRWVQMRTAYKYVFEKYGDNYNWFFLALPTTFAVIENLKYLLFTRDASQPFYLGHTVIFGDLEYVTVEGGIVLSRELMKRLNRLLDNSETCADQSVIWKLSEDKQLAICLKYAGVHAENAEDYEGRDVFNTKPIAQLIEEALSNNPQQVVEGCCSDMAITFNGLTPQKMEVMMYGLYRLRAFGHYFNDTLVFLPPVGSEND | galactose transferring activity could be confirmed for 4-GalNAc-HP |  |  | 
2 | C1Gal-T2 (entire ORF expressed in LSC cells, LSC-C1Gal-T2 enzyme source) (protein) MLSESSSFLKGVMLGSIFCALITMLGHIRIGHGNRMHHHEHHHLQAPNKEDILKISEDERMELSKSFRVYCIILVKPKDVSLWAAVKETWTKHCDKAEFFSSENVKVFESINMDTNDMWLMMRKAYKYAFDKYRDQYNWFFLARPTTFAIIENLKYFLLKKDPSQPFYLGHTIKSGDLEYVGMEGGIVLSVESMKRLNSLLNIPEKCPEQGGMIWKISEDKQLAVCLKYAGVFAENAEDADGKDVFNTKSVGLSIKEAMTYHPNQVVEGCCSDMAVTFNGLTPNQMHVMMYGVYRLRAFGHIFNDALVFLPPNGSDND |  | the reaction product appeared as a new peak at 28.8 minutes | C1Gal-T2 was verified in vitro to be a core 1 synthetase, by which galactose is transferred to the nonreducing terminal of GalNAc α1-peptide through the β1,3 bond | the above experiment was repeated using various GalNAc α1-peptides as acceptor substrates. This resulted in similar reactions to that with pNp-α-GalNAc
